Patent US20230176070A1 (published 2023)

Biological target: glutathione S-transferase (UniProt P08515 1-218 = GST)
Assay: SPR

Chain of glutathione S-transferase (P08515 whole entry): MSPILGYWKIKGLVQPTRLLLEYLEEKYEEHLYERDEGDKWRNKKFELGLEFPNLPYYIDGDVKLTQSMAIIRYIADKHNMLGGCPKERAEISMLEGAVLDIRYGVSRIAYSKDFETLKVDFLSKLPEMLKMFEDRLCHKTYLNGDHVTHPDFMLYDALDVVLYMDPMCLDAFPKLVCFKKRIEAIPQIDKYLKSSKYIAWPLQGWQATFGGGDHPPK

B1: G47 (VHH)
VHH: QVQLVESGGGLVQAGGSLRLSCAASERIFSNYAMGWFRQAPGKEREFVASIRGSGSQTSYADSVKGRFTISRDGAKDTVDLQMNSLKPEDTAVYYCSAKKYCGSTYNRAEGYDYWGQGTQVTVSS
Kd: 17.6 nM
